One block for each binder: values may come before it.
B2: Stg_CT WT (domain or fragment, mouse, UniProt O88602 203-323, looked up)
chain: DRHKQLRATARATDYLQASAITRIPSYRYRYQRRSRSSSRSTEPSHSRDASPVGVKGFNTLPSTEISMYTLSRDPLKAATTPTATYNSDRDNSFLQVHNCIQKDSKDSLHANTANRRTTPV

Experiments:
Stg_CT WT = target: B2; assay: ITC
PSD-95 PSG = PSD-95 PSG (UniProt P78352-1 309-724); assay: ITC
PSD-95 NPDZ12 = PSD-95 NPDZ12 (UniProt P78352-1 1-247); assay: NMR titration

B1: PSD-95 PDZ2 (domain or fragment, UniProt P78352-1 155-247, looked up)
chain: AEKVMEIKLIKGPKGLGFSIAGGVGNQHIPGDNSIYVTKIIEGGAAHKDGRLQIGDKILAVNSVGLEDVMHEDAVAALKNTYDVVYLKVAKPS
binding result (Stg_CT WT): binds

Binder: B2
Kd (PSD-95 PSG): ~5.3 µM

binding result (PSD-95 NPDZ12): binds
B3: Stg_CT Δ4 (domain or fragment, mouse, UniProt O88602 203-319, looked up)
chain: DRHKQLRATARATDYLQASAITRIPSYRYRYQRRSRSSSRSTEPSHSRDASPVGVKGFNTLPSTEISMYTLSRDPLKAATTPTATYNSDRDNSFLQVHNCIQKDSKDSLHANTANRR

— PMC6842113 (Neuron, 2019)
